doi:10.1101/2024.08.12.607649 (bioRxiv, 2024)

Molecular target: T1, Msn5_(βC-helix-tail) (residues 1179-1224 removed) (S. cerevisiae, UniProt P52918 1-1178)
T1 sequence (looked up): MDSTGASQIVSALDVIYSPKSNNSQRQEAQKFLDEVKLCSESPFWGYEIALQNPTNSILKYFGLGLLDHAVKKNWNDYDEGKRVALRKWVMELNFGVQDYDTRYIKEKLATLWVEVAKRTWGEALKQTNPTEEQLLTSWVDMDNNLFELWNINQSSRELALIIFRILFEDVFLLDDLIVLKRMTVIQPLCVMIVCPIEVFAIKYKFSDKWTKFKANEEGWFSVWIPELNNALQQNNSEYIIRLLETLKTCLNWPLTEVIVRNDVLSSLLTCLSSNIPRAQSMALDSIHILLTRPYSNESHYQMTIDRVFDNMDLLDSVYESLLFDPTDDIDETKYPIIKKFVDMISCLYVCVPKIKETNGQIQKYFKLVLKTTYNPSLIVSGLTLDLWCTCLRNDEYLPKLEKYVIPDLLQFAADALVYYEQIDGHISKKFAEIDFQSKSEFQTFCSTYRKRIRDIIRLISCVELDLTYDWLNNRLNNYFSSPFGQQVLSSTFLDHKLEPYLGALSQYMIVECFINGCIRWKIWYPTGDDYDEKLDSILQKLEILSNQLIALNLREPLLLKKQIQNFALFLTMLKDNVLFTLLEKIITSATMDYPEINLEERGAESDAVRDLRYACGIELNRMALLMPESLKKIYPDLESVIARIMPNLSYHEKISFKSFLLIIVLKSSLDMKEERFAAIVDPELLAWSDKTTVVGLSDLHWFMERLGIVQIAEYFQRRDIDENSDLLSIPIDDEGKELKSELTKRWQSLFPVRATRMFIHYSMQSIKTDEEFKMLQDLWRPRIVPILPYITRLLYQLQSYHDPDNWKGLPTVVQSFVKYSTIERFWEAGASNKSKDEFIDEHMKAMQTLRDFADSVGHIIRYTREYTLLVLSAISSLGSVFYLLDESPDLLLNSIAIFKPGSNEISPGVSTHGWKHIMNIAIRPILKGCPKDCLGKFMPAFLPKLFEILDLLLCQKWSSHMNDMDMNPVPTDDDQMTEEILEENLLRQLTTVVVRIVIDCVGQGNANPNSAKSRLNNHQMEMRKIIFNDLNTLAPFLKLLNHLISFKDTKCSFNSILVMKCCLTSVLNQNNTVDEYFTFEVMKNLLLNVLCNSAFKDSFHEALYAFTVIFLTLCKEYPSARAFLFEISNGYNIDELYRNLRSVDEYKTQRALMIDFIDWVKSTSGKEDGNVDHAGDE
Assay: pull-down

B1: GST-pPho4_(1-200) (domain or fragment, S. cerevisiae, UniProt P07270 1-200, looked up)
chain: MGRTTSEGIHGFVDDLEPKSSILDKVGDFITVNTKRHDGREDFNEQNDELNSQENHNSSENGNENENEQDSLALDDLDRAFELVEGMDMDWMMPSHAHHSPATTATIKPRLLYSPLIHTQSAVPVTISPNLVATATSTTSANKVTKNKSNSSPYLNKRRGKPGPDSATSLFELPDSVIPTPKPKPKPKQYPKVILPSNST
modifications: phosphoserine at 100, 114, 128, 152 (in vitro phosphorylation by Pho80-Pho85)
- binding result: binds
